{
  "source": "FireProtDB (doi:10.1021/bi962163z)",
  "details": "Homo sapiens, Thermal, DSC, reversible: no, whole UniProt chain shown",
  "data": [
    {"protein": "Annexin A5 wild type, P08758 (protein) MAQVLRGTVTDFPGFDERADAETLRKAMKGLGTDEESILTLLTSRSNAQRQEISAAFKTLFGRDLLDDLKSELTGKFEKLIVALMKPSRLYDAYELKHALKGAGTNEKVLTEIIASRTPEELRAIKQVYEEEYGSSLEDDVVGDTSGYYQRMLVVLLQANRDPDAGIDEAQVEQDAQALFQAGELKWGTDEEKFITIFGTRSVSHLRKVFDKYMTISGFQIEETIDRETSGNLEQLLLAVVKSIRSIPAYLAETLYYAMKGAGTDDHTLIRVMVSRSEIDLFNIRKEFRKNFATSLYSMIKGDTSGDYKKALLLLCGEDD", "values": [
      {"measurement": "Tm", "setting": "pH 4, Sodium phosphate 20 mM", "value": 40.6, "unit": "°C"},
      {"measurement": "unfolding enthalpy (calorimetric)", "setting": "pH 4, Sodium phosphate 20 mM", "value": 128, "unit": "kcal/mol"},
      {"measurement": "unfolding enthalpy (van 't Hoff)", "setting": "pH 4, Sodium phosphate 20 mM", "value": 151, "unit": "kcal/mol"},
      {"measurement": "Tm", "setting": "pH 6, Sodium phosphate 20 mM", "value": 50.5, "unit": "°C"},
      {"measurement": "unfolding enthalpy (calorimetric)", "setting": "pH 6, Sodium phosphate 20 mM", "value": 147, "unit": "kcal/mol"},
      {"measurement": "unfolding enthalpy (van 't Hoff)", "setting": "pH 6, Sodium phosphate 20 mM", "value": 174, "unit": "kcal/mol"},
      {"measurement": "Tm", "setting": "pH 7, Sodium phosphate 20 mM", "value": 53.4, "unit": "°C"},
      {"measurement": "unfolding enthalpy (calorimetric)", "setting": "pH 7, Sodium phosphate 20 mM", "value": 163, "unit": "kcal/mol"},
      {"measurement": "unfolding enthalpy (van 't Hoff)", "setting": "pH 7, Sodium phosphate 20 mM", "value": 189, "unit": "kcal/mol"},
      {"measurement": "Tm", "setting": "pH 8, Sodium phosphate 20 mM", "value": 54.4, "unit": "°C"},
      {"measurement": "unfolding enthalpy (calorimetric)", "setting": "pH 8, Sodium phosphate 20 mM", "value": 162, "unit": "kcal/mol"},
      {"measurement": "unfolding enthalpy (van 't Hoff)", "setting": "pH 8, Sodium phosphate 20 mM", "value": 199, "unit": "kcal/mol"},
      {"measurement": "Tm", "setting": "pH 8, Tris 50 mM, KCl 100 mM", "value": 52.5, "unit": "°C"},
      {"measurement": "unfolding enthalpy (calorimetric)", "setting": "pH 8, Tris 50 mM, KCl 100 mM", "value": 163, "unit": "kcal/mol"},
      {"measurement": "unfolding enthalpy (van 't Hoff)", "setting": "pH 8, Tris 50 mM, KCl 100 mM", "value": 190, "unit": "kcal/mol"}
    ]}
  ]
}
